The results in this text go back to a protein production outcome set (Wang et al. 2014).

The nature of this data set: label from the status in PepcDB records.
Take “MNISSAQFIPGVHTVEEIEAEIHKNLHISKSCSYQKVPNSHKEFTKFCYEVYNEIKISDKEFKEKRAALDTLRLCLKRISPDAELVAFGSLESGLALKNSDMDLCVLMDSRVQSDTIALQFYEELIAEGFEGKFLQRARIPIIKLTSDTKNGFGASFQCDIGFNNRLAIHNTLLLSSYTKLDARLKPMVLLVKHWAKRKQINSPYFGTLSSYGYVLMVLYYLIHVIKPPVFPNLLLSPLKQEKIVDGFDVGFDDKLEDIPPSQNYSSLGSLLHGFFRFYAYKFEPREKVVTFRRPDGYLTKQEKGWTSATEHTGSADQIIKDRYILAIEDPFEISHNVGRTVSSSGLYRIRGEFMAASRLLNSRSYPIPYDSLFEEAPIPPRRQKKTDEQSNKKLLNETDGDNS”: the protein production result is reported as “not failed”.
In the case of “MAYREKDTKKWTAQWFETNVMGEKKKRRKRGFETKREALEFERSKKLSNERSMDMKLSDFIEIYFSDKQNDLKDRTIKNKRYMMQQHIVPYFGNQMMSEIKASQIIQWQNEIQKKGYSDSYLRMIQNQLTSLFTHAAKIYDLPVNPCKKVKRMGNSDSRSLNFWTLDEYKQFIQTMEPGTRYYLMFEMLFWTGCRIGELLAITKADINFEKNQLSINKTYYRTGMQDIITEPKTKQSFRTIEIPEFLKEEIKEFVDGHYGMPDTERLFPVVQEAVQHKMKRQIELAGVKKIRVHDIRHSHVAYLIEKGVEPLLIRDRLGHKDIRITLNTYGHLYPNQQRKIANLLDNENGNAVTGLGEERDEC” it was “failed”.
“MRQRKDMPHNRLQTGGMTDEPTDIKAEAKPARTSDLRGFIRLLEERGQLRRIRQPVSLVHEITEIHRRVLADGGPALLFEQPVDHEGKVRKMPLLANLFGTRQRIEWGLGLETGGLPALGQKLTELREPRPPKSMAEAWSKLPLLRAALSMRQRNVSRAPVQEKVLTRDAVDLARLPVQWCWPGEPAPLITWPLVITRSPDDPDDINVGIYRMQVLGPDRVIMRWLAHRGGAHHHRLWQARGLDMPVTVAIGADPATILAAVMPLPDHISELGFSGLLRGAKSRIAKALTVPMPVPANAEIVLEGTVSATETAMEGPYGDHTGYYNSVEAFPVMTLSAITMRRDPIYLSTYTGRPPDEPSVLGEAMLEIFLPLVKRQFAEIVDLWMPPEACSYRVMVASIDKRYPGQAKRVMMGLWSMLPQFSYVKLIILVDPDIDVRSWTDVVWALSTRFDASRDTTIINDTPIDYLDFASPKAGLGGKMGLDATRKLPPETEREWGRVLSMTPDVVAKVDLVWRDLGLGERPLEHHHHHH”: the protein production entry is “failed”.
The value for “MVCCPVNENAAALVVSDGRVMIWELKSAVCNRNSRNSSSGVSPLYSPVSFCGIPVGVLQNKLPDLSLDNMIGQSAIAGEEHPRGSILREVHLKFLLTGLLSGLPAPQFAIRMCPPLTTKNIKMYQPLLAVGTSNGSVLVYHLTSGLLHKELSIHSCEVKGIEWTSLTSFLSFATSTPNNMGLVRNELQLVDLPTGRSIAFRGERGNDESAIEMIKVSHLKQYLAVVFRDKPLELWDVRTCTLLREMSKNFPTITALEWSPSHNLKSLRKKQLATREAMARQTVVSDTELSIVESSVISLLQEAESKSELSQNISARGHFVFTDIDGQVYHLTVEGNSVKDSARIPPDGSMGSITCIAWKGDTLVLGDMDGNLNFWDLKGRVSRGIPTHRSWVRKIRFAPGKGNQKLIAMYNDGAEVWDTKEVQMVSSLRSGRNVTFRILDVDWCTSDKVILASDDGCIRVLEMSMKSACFRMDEQELTEPVWCPYLLVPRASLALKAFLLHQPWNGQYSLDISHVDYPENEEIKNLLQEQLNSLSNDIKKLLLDPEFTLLQRCLLVSRLYGDESELHFWTVAAHYLHSLSQEKSASTTAPKEAAPRDKLSNPLDICYNVLCENAYFQKFQLERVNLQEVKRSTYDHTRKCTDQLLLLGQTDRAVQLLLETSADNQHYYCDSLKACLVTTVTSSGPSQSTIKLVATNMIANGKLAEGVQLLCLIDKAADACRYLQTYGEWNRAAWLAKVRLNPEECADVLRRWVDHLCSPQVNQKSKALLVLLSLGCFFSVAETLHSMRYFDRAALFVEACLKYGAFEVTEDTEKLITAIYADYARSLKNLGFKQGAVLFASKAGAAGKDLLNELESPKEEPIEE” was “failed”; that for “MMHYGVLALTFLSVNLDFFLMLVFLLKKYRLWQVLLGYLLGNLILLTASFFVGKALTLFLPEWLLGFLGVLPIWLAFHDDDDDTADRAGGSPVINVLVTYLAVCAGCNLSIFLPVLVGESMVHFVMTLGFIGILTMLVVLIINQVAEIKAVQKQIAAHGERLMKICYVVIGLYVFWDSGLISHLIAFL” was “failed”; that for “MSGMRVYLGADHAGYELKQRIIEHLKQTGHEPIDCGALRYDADDDYPAFCIAAATRTVADPGSLGIVLGGSGNGEQIAANKVPGARCALAWSVQTAALAREHNNAQLIGIGGRMHTVAEALAIVDAFVTTPWSKAQRHQRRIDILAEYERTHEAPPVPGAPA” was “not failed”.
In the case of “MEAEKKKLSIPPKGIRAIIEAIRLGEIIKPSQYAKREAFKKHDVEEAWLNRVLTMIFYDIMKKQGLIDKVIKEIVGVTPLILDPWLRAALRVAVDIALFHDPSSQTIKNLRWKASDFISSRTHPYVGMYFWDLLDKIFEYKPNPKNELEELEWKYLAPSWLIERVKGILGDETEDFFRSVNKRHEWISIRVNTLKANVEEVIGELEEDGVEVVRSERVPTILKIKGPYNFDTSSAFNEGKIIVQEEASAVASIVLDPKPGETVVDLAAAPGGKTTHLAELMKNKGKIYAFDVDKMRMKRLKDFVKRMGIKIVKPLVKDARKAPEIIGEEVADKVLLDAPCTSSGTIGKNPELRWRLREDKINEMSQLQRELLESAARLVKPGGRLLYTTCSIFKEENEKNIRWFLNVHPEFKLVPLKSPYDPGFLEGTMRAWPHRHSTIGFFYALLEKSK” it was “not failed”; in that of “MILSLNLLHKISPKLKKIPLNELCAALMDLGCEVETINSIKPSTNLVFAKVLEKTRHPNANHLNLVKVKANQKVYEIVCGANNFSVHNWVVLAKLNAELANGLKITPRELRGYVSNGMLCAYSEINPQATSFLTSTDLDGILVLDDNYDHYKTPNQIFNLDDVILDLSIPSNRNDLNGYFWIAKELCAYFDFEYVVDATINHRPHKEIIDVRILSDDVNSYGIIEVKNIQNYILKWNTKSILINNQIKVLNNFADNMNFLTLLTANPLHAFDARKISGQIVVKNAEEDAILLGLDQKEYLIKKGDLIIVDDQKILALAGIIGSNDSKIDATSTTAYIECANFNPMLIANTARRLKINTAAAMRFSKPLTNYVTKVTLKKLLANFKSDAKLIYYFKHSVHNVIKNKINQVSDFVGAEIDLDTAQTFLKRLGYKINKSNLITPSHRYDVLNEFDVYEDIMKKISIQEIKPQPISFDILNFENNLAYDFEKKVSDFLVDQGLFECKTYNLKNQTQAHEFNFFNFKQAYEINNPTSNMRSHLKLNNLNSLLEVLEYNQNQKNELENIFEISKINPVDSSQQTVLSIILCKPLINSKINDSLIVNNFVTTKALLHALLTKLNIDYAYDKNHVVNELYDNNQLALINANKQVFGFIGQLKNQVKKTYGLSNDIFIINLNLTSYLNQKQVITKVIKPSMYHDVIRDISVKLASDVDLNNIIANIKKIKNIRKVEISDLYIKDDGIIYTFKYYINDHLSNLSSEQIIIIEQEVNNYLKQF”, “failed”.
In the case of “VNPLLDSLQPYPFEKLRALFKDVTPNAGLAHISFGIGEPKHPTPALIRDAVVASLGGLSAYPATSGSPALRESIAKWVTQRYNLPPVDPATQVLPVSGSREALFSLAQTVLDPQKNAGGEPAIVLCPNPFYQIYEGAAILAGAQPYFVNSDPARNFACDYSAVPAEIWARTQLLYVCSPGNPTGAVLTLDDWRELFALSDRYGFVIASDECYSEIYFDEAKPPLGGLEAAHKLGRGFERLVMLSSLSKRSNVPGMRSGFVAGDAAILKDFLLYRTYHGAALSTVFQNASIAAWNDEAHVRENRAKYLQKFSTVTPMLAEVLDVRLPDAAFYLWADVSRTGLTDTVFAQRLYADYNVTVLPGSFLARTAHGVNPGRNFVRMALVADVDECTQGAQRIVDFCRALAG” it was “not failed”; in that of “MITVNFLILLLGLVFLVKGSDYFVKSASTIAKKLGVSEFVIGLTLVAIGTSIPELASSIAASIQQASGIVIGNVVGSNIANVGLIVGVAALLSPMKTEIDMLKRDGYIMLFSAVLFFVFAFNRELSMLEAGLFVLLYIAYVFFLFEEAEKYEGKLHFKEFITYFFKFKYINSAMQKLNGNRNRNSDSDRNSDSGNGNERLEGGFAKDIFTLVLSCAAIVIGAKYFVEESIFFAELLGIPDTVIGTTLVAVGTSLPELVVTVSAARQGYGSIALGNVIGSNITNIFLILGLSGLFYPLSVAEMSLFFTTPVMIAISLILLIFISTGWEIKRWEGVVLMMFYVAFLVVLFYI”, “failed”.
